Data published in publication PMC6140609 (Oncoimmunology, 2018).

Molecular target: Human OX40-Fc (human) (UniProt P43489)
Assay: ELISA

Sequence of Human OX40-Fc (human) (P43489 29-214): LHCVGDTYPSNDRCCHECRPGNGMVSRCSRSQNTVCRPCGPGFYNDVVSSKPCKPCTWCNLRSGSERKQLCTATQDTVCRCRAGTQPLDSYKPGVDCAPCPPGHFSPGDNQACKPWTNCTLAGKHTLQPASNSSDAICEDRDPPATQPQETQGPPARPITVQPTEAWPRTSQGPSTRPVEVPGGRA

Row | Molecule | EC50 [nM]
1 | scOX40L-scCD27L (from UniProt P23510 51-183; P23510 51-183; P23510 51-183; P32970 52-193; P32970 52-193; P32970 52-193) (ligand) | 60.2
2 | scCD27L-scOX40L (from UniProt P32970 52-193; P32970 52-193; P32970 52-193; P23510 51-183; P23510 51-183; P23510 51-183) (ligand) | 14.3

Molecular target: Human CD40-Fc (human, UniProt P25942 21-193)
Sequence (P25942 21-193): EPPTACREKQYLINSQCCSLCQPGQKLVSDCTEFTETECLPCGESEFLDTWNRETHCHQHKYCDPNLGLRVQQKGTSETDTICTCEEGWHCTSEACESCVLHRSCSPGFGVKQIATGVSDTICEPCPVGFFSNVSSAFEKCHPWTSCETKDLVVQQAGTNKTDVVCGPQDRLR
Assay: ELISA

Row | Molecule | EC50 [nM]
3 | CD40L-CD27L (ligand, human) GDQNPQIAAHVISEASSKTTSVLQWAEKGYYTMSNNLVTLENGKQLTVKRQGLYYIYAQVTFCSNREASSQAPFIASLCLKSPGRFERILLRAANTHSSAKPCGQQSIHLGGVFELQPGASVFVNVTDPSQVSHGTGFTSFGLLKLGGGGSGGGGSGGGGSSLGWDVAELQLNHTGPQQDPRLYWQGGPALGRSFLHGPELDKGQLRIHRDGIYMVHIQVTLAICSSTTASRHHPTTLAVGICSPASRSISLLRLSFHQGCTIASQRLTPLARGDTLCTNLTGTLLPSRNTDETFFGVQWVRP | 12.3

Molecular target: the molecule itself
Assay: SEC

Row | Molecule | stoichiometry N
4 | CD40L-OX40L (ligand, human) GDQNPQIAAHVISEASSKTTSVLQWAEKGYYTMSNNLVTLENGKQLTVKRQGLYYIYAQVTFCSNREASSQAPFIASLCLKSPGRFERILLRAANTHSSAKPCGQQSIHLGGVFELQPGASVFVNVTDPSQVSHGTGFTSFGLLKLGGGGSGGGGSGGGGSQVSHRYPRIQSIKVQFTEYKKEKGFILTSQKEDEIMKVQNNSVIINCDGFYLISLKGYFSQEVNISLHYQKDEEPLFQLKKVRSVNSLMVASLTYKDKVYLNVTTDNTSLDDFHVNGGELILIHQNPGEFCVL | 3
5 | OX40L-CD27L (ligand, human) QVSHRYPRIQSIKVQFTEYKKEKGFILTSQKEDEIMKVQNNSVIINCDGFYLISLKGYFSQEVNISLHYQKDEEPLFQLKKVRSVNSLMVASLTYKDKVYLNVTTDNTSLDDFHVNGGELILIHQNPGEFCVLGGGGSGGGGSGGGGSSLGWDVAELQLNHTGPQQDPRLYWQGGPALGRSFLHGPELDKGQLRIHRDGIYMVHIQVTLAICSSTTASRHHPTTLAVGICSPASRSISLLRLSFHQGCTIASQRLTPLARGDTLCTNLTGTLLPSRNTDETFFGVQWVRP | 3
6 | OX40L-4-1BBL (ligand, human) QVSHRYPRIQSIKVQFTEYKKEKGFILTSQKEDEIMKVQNNSVIINCDGFYLISLKGYFSQEVNISLHYQKDEEPLFQLKKVRSVNSLMVASLTYKDKVYLNVTTDNTSLDDFHVNGGELILIHQNPGEFCVLGGGGSGGGGSGGGGSGGGGSREGPELSPDDPAGLLDLRQGMFAQLVAQNVLLIDGPLSWYSDPGLAGVSLTGGLSYKEDTKELVVAKAGVYYVFFQLELRRVVAGEGSGSVSLALHLQPLRSAAGAAALALTVDLPPASSEARNSAFGFQGRLLHLSAGQRLGVHLHTEARARHAWQLTQGATVLGLFRVTPEIPAGLPSPRSE | 3
7 | CD27L-CD40L (ligand, human) SLGWDVAELQLNHTGPQQDPRLYWQGGPALGRSFLHGPELDKGQLRIHRDGIYMVHIQVTLAICSSTTASRHHPTTLAVGICSPASRSISLLRLSFHQGCTIASQRLTPLARGDTLCTNLTGTLLPSRNTDETFFGVQWVRPGGGGSGGGGSGGGGSGDQNPQIAAHVISEASSKTTSVLQWAEKGYYTMSNNLVTLENGKQLTVKRQGLYYIYAQVTFCSNREASSQAPFIASLCLKSPGRFERILLRAANTHSSAKPCGQQSIHLGGVFELQPGASVFVNVTDPSQVSHGTGFTSFGLLKL | 3
8 | OX40L-CD40L (ligand, human) QVSHRYPRIQSIKVQFTEYKKEKGFILTSQKEDEIMKVQNNSVIINCDGFYLISLKGYFSQEVNISLHYQKDEEPLFQLKKVRSVNSLMVASLTYKDKVYLNVTTDNTSLDDFHVNGGELILIHQNPGEFCVLGGGGSGGGGSGGGGSGDQNPQIAAHVISEASSKTTSVLQWAEKGYYTMSNNLVTLENGKQLTVKRQGLYYIYAQVTFCSNREASSQAPFIASLCLKSPGRFERILLRAANTHSSAKPCGQQSIHLGGVFELQPGASVFVNVTDPSQVSHGTGFTSFGLLKL | 3
9 | CD27L-4-1BBL (ligand, human) SLGWDVAELQLNHTGPQQDPRLYWQGGPALGRSFLHGPELDKGQLRIHRDGIYMVHIQVTLAICSSTTASRHHPTTLAVGICSPASRSISLLRLSFHQGCTIASQRLTPLARGDTLCTNLTGTLLPSRNTDETFFGVQWVRPGGGGSGGGGSGGGGSGGGGSREGPELSPDDPAGLLDLRQGMFAQLVAQNVLLIDGPLSWYSDPGLAGVSLTGGLSYKEDTKELVVAKAGVYYVFFQLELRRVVAGEGSGSVSLALHLQPLRSAAGAAALALTVDLPPASSEARNSAFGFQGRLLHLSAGQRLGVHLHTEARARHAWQLTQGATVLGLFRVTPEIPAGLPSPRSE | 3
10 | CD27L-OX40L (ligand, human) SLGWDVAELQLNHTGPQQDPRLYWQGGPALGRSFLHGPELDKGQLRIHRDGIYMVHIQVTLAICSSTTASRHHPTTLAVGICSPASRSISLLRLSFHQGCTIASQRLTPLARGDTLCTNLTGTLLPSRNTDETFFGVQWVRPGGGGSGGGGSGGGGSQVSHRYPRIQSIKVQFTEYKKEKGFILTSQKEDEIMKVQNNSVIINCDGFYLISLKGYFSQEVNISLHYQKDEEPLFQLKKVRSVNSLMVASLTYKDKVYLNVTTDNTSLDDFHVNGGELILIHQNPGEFCVL | 3
